Results from the supplement of paper PMC9112550, “Optimization of the antimicrobial peptide Bac7 by deep mutational scanning” (BMC Biology, 2022).

System: Escherichia coli TOP10
Assay: shrunken log2 fold change of peptide-encoding DNA abundance (4.5 h post-induction vs induction); higher = less antimicrobial activity (less host growth inhibition)
Details: time post-induction: 4.5 h; library: site-saturation at positions 5, 18, 19, 20
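Note: peptides expressed intracellularly from a pBAD plasmid library in pooled LB shake-flask culture, induced with 0.3% L-arabinose, DNA abundance read by NGS, three biological replicates, DESeq2 with apeglm shrinkage.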

Sequence	shrunken log2 fold change
RRIRARPPRLPRPRPRPTHLPRP	0.326
RRIRNRPPRLPRPRPRPHFEPRP	0.066
RRIRPRPPRLPRPRPRPWVAPRP	0.014
RRIRSRPPRLPRPRPRPSKVPRP	-0.575
RRIRRRPPRLPRPRPRPQIRPRP	0.178
RRIRSRPPRLPRPRPRPHWAPRP	-0.0673
RRIRGRPPRLPRPRPRPHQNPRP	0.58
RRIRGRPPRLPRPRPRPCALPRP	0.594
RRIRQRPPRLPRPRPRPHCYPRP	-0.0282
RRIRIRPPRLPRPRPRPAMWPRP	0.13
RRIRWRPPRLPRPRPRPFHKPRP	-0.28
RRIRLRPPRLPRPRPRPGSQPRP	0.0681
RRIRIRPPRLPRPRPRPGMGPRP	0.132
RRIRRRPPRLPRPRPRPAKHPRP	0.219
RRIRLRPPRLPRPRPRPHMSPRP	-0.325
RRIRARPPRLPRPRPRPAPTPRP	0.838
RRIRIRPPRLPRPRPRPMMIPRP	-0.0366
RRIRRRPPRLPRPRPRPLDLPRP	-0.158
RRIRNRPPRLPRPRPRPNCGPRP	0.0526
RRIRRRPPRLPRPRPRPGTKPRP	0.0056
RRIRRRPPRLPRPRPRPRHSPRP	0.226
RRIRERPPRLPRPRPRPYNDPRP	0.0352

Sequence	shrunken log2 fold change
RRIRSRPPRLPRPRPRPPFSPRP	-0.217
RRIRTRPPRLPRPRPRPLNSPRP	-0.347
RRIRYRPPRLPRPRPRPHHFPRP	-0.288
RRIRCRPPRLPRPRPRPDVTPRP	0.0172
RRIRCRPPRLPRPRPRPWWPPRP	0.0266
RRIRYRPPRLPRPRPRPLHQPRP	-0.608
RRIRTRPPRLPRPRPRPRDMPRP	0.161
RRIRCRPPRLPRPRPRPNASPRP	0.0178
RRIRDRPPRLPRPRPRPQAQPRP	-0.0247
RRIRWRPPRLPRPRPRPFAHPRP	-0.0296
RRIRERPPRLPRPRPRPVTAPRP	-0.00991
RRIRDRPPRLPRPRPRPEIKPRP	1.54
RRIRTRPPRLPRPRPRPTDPPRP	-0.198
RRIRCRPPRLPRPRPRPANHPRP	-0.282
RRIRRRPPRLPRPRPRPVGAPRP	0.592
RRIRIRPPRLPRPRPRPYKAPRP	-0.361
RRIRCRPPRLPRPRPRPAISPRP	0.0324
RRIRARPPRLPRPRPRPFPTPRP	0.311
RRIRFRPPRLPRPRPRPDTVPRP	-0.0794
RRIRLRPPRLPRPRPRPDCGPRP	0.0932
RRIRYRPPRLPRPRPRPCPWPRP	-0.227
RRIRSRPPRLPRPRPRPHENPRP	0.0415

Sequence	shrunken log2 fold change
RRIRDRPPRLPRPRPRPTVIPRP	-0.118
RRIRERPPRLPRPRPRPNWIPRP	-0.324
RRIRQRPPRLPRPRPRPGTAPRP	0.206
RRIRLRPPRLPRPRPRPMGCPRP	0.031
RRIRYRPPRLPRPRPRPVRRPRP	0.0834
RRIRQRPPRLPRPRPRPLESPRP	-0.0344
RRIRFRPPRLPRPRPRPMRCPRP	0.0196
RRIRCRPPRLPRPRPRPINAPRP	0.695
RRIRIRPPRLPRPRPRPLCFPRP	-0.485
RRIRWRPPRLPRPRPRPVWKPRP	0.0259
RRIRPRPPRLPRPRPRPGHAPRP	0.461
RRIRPRPPRLPRPRPRPTMHPRP	0.0766
RRIRARPPRLPRPRPRPEDQPRP	0.0203
RRIRWRPPRLPRPRPRPEHEPRP	0.623
RRIRCRPPRLPRPRPRPFVIPRP	-0.526
RRIRSRPPRLPRPRPRPVVTPRP	0.021
RRIRLRPPRLPRPRPRPEAKPRP	0.0204
RRIRRRPPRLPRPRPRPGSHPRP	-0.154
RRIRLRPPRLPRPRPRPVRDPRP	-0.105
RRIRKRPPRLPRPRPRPGTEPRP	0.542
RRIRARPPRLPRPRPRPYFQPRP	-0.383
RRIRNRPPRLPRPRPRPVMYPRP	-0.128

Sequence	shrunken log2 fold change
RRIRPRPPRLPRPRPRPNPAPRP	0.234
RRIRARPPRLPRPRPRPPTLPRP	0.503
RRIRGRPPRLPRPRPRPKCMPRP	0.209
RRIRYRPPRLPRPRPRPGFQPRP	-1.11
RRIRTRPPRLPRPRPRPTRTPRP	0.767
RRIRMRPPRLPRPRPRPDRYPRP	-0.0269
RRIRRRPPRLPRPRPRPHVYPRP	-0.341
RRIRLRPPRLPRPRPRPTHCPRP	-0.0342
RRIRWRPPRLPRPRPRPRYYPRP	-0.0581
RRIRMRPPRLPRPRPRPCLPPRP	0.154
RRIRVRPPRLPRPRPRPWGMPRP	0.0336
RRIRKRPPRLPRPRPRPSEAPRP	0.401
RRIRCRPPRLPRPRPRPQRWPRP	0.294
RRIRYRPPRLPRPRPRPPWDPRP	0.128
RRIRQRPPRLPRPRPRPEKVPRP	-0.155
RRIRWRPPRLPRPRPRPPCCPRP	0.198
RRIRPRPPRLPRPRPRPVDNPRP	0.0523
RRIRNRPPRLPRPRPRPWIPPRP	-0.536
RRIRSRPPRLPRPRPRPCPQPRP	0.0538
RRIRERPPRLPRPRPRPALMPRP	0.129
RRIRHRPPRLPRPRPRPREFPRP	0.0275
RRIRRRPPRLPRPRPRPRLYPRP	-0.00733

Sequence	shrunken log2 fold change
RRIRSRPPRLPRPRPRPINLPRP	-0.00701
RRIRLRPPRLPRPRPRPPEGPRP	0.662
RRIRWRPPRLPRPRPRPMYRPRP	-0.233
RRIRSRPPRLPRPRPRPKIKPRP	-0.346
RRIRLRPPRLPRPRPRPGIEPRP	-0.00975
RRIRQRPPRLPRPRPRPPDDPRP	-0.308
RRIRMRPPRLPRPRPRPWGEPRP	0.232
RRIRTRPPRLPRPRPRPHNFPRP	-0.0359
RRIRTRPPRLPRPRPRPAFHPRP	0.0779
RRIRDRPPRLPRPRPRPRLLPRP	0.146
RRIRGRPPRLPRPRPRPTYHPRP	0.0704
RRIRQRPPRLPRPRPRPDQAPRP	0.0424
RRIRTRPPRLPRPRPRPGLCPRP	-0.00367
RRIRARPPRLPRPRPRPDISPRP	0.277
RRIRRRPPRLPRPRPRPYIGPRP	-0.399
RRIRHRPPRLPRPRPRPARYPRP	0.0518
RRIRTRPPRLPRPRPRPMKQPRP	-0.0631
RRIRPRPPRLPRPRPRPWPSPRP	-0.125
RRIRPRPPRLPRPRPRPFRRPRP	0.0448
RRIRSRPPRLPRPRPRPVRLPRP	0.196
RRIRRRPPRLPRPRPRPTHTPRP	0.66
